Data on 2 molecules can be found in PMC5389526.

This series has as its target T1, Cas1-Cas2 complex (native Cas1 + Cas2-His6) (Escherichia coli, UniProt Q46896;P45956 1-305;1-94).
T1 sequence 1: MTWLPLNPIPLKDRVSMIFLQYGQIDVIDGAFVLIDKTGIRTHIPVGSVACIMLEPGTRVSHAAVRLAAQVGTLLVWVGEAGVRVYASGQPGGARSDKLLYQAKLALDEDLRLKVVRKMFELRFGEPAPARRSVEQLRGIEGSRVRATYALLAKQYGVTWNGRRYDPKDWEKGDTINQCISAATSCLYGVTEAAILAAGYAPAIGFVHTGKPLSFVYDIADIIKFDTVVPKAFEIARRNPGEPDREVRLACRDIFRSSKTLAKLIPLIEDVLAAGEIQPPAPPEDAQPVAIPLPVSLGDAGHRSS
T1 sequence 2: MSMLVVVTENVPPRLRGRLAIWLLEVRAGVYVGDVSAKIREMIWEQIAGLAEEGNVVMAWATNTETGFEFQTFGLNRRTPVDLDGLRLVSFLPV
As to the kind of experiment: EMSA.

Substitutions are numbered along the chain they refer to.

B1: S1 oligonucleotide (ssDNA)
DNA: ATTTCAGCTACTCCGATGGCCCATATGCGGATT
For the molecule B1, the binding result is listed as “no binding”.

B2: S2 oligonucleotide (ssDNA)
DNA: B1 DNA with T33C
On to B2, for which the binding result is on record as “no binding”.
